# Test results reported in patent US11219695.
# Columns and labels:
# [1] = system: ZFN SBS 47171 (left/right albumin ZFN, FokI fusion) (synthetic construct); test: cell_activity; conditions: ZFN pair with P2; HepG2/C3A, 300K/600K vg/cell, donor A; 39.81% with donor B; half-site not stated
# [2] = system: ZFN SBS 47898 (also printed as SB 47931 in the transduction method) (synthetic construct); test: cell_activity; conditions: ZFN pair with P1; HepG2/C3A, 300K/600K vg/cell, donor A; partner named 47898 or 47931 in text; half-site not stated
sequence,measurement,setting,value
GCACTAAGGAAAGTGCAAAGTAACTTAGAGTGACTGAAACTTCACAGAATAGGGTTGAAGATTGAATTCATAACTATCCCAAAGACCTATCCATTGCACTATGCTTTATTTAAAAACCACAAAACCTGTGCTGTTGATCTCATAAATAGAACTTGTATTTATATTTATTTTCATTTTAGTCTGTCTTCTTGGTTGCTGTTGATAGACACTAAAAGAGTATTA (double strand),activity,[1],43.5 % indels
same,activity,[2],43.5 % indels
